Assay results as given in paper PMC10569242, “VvWRKY5 enhances white rot resistance in grape by promoting the jasmonic acid pathway”.

Target: T1, VvWRKY5-HIS (Vitis vinifera, UniProt A0ABY9BGE3 8-330)
T1 sequence: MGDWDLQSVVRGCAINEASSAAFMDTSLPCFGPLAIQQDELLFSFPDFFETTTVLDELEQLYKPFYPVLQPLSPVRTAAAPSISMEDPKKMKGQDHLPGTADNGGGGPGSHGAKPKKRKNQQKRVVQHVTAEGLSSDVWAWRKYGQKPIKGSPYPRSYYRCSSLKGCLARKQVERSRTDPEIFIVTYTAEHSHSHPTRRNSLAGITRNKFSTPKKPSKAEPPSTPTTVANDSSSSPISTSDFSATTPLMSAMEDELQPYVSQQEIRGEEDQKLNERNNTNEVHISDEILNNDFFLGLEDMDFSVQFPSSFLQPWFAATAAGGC
Assay: EMSA; unlabeled cold probe competitor 100x/200x; LightShift Chemiluminescent EMSA Kit (Beyotime); buffer, salt, pH and temperature not stated
Conditions: protein: recombinant; tags: His (pET-32a(+) fusion); blunt

Binder | binding result
VvMYC2 W-box probe (dsDNA) DNA 1: TAGGGTGGGGATTTGACCTGGGTCTGGAGATTCG DNA 2: CGAATCTCCAGACCCAGGTCAAATCCCCACCCTA | binds
VvJAZ2 W-box probe (dsDNA) DNA 1: TAAATCCTCACATCGGGTCAAGGATCGAGTATGC DNA 2: GCATACTCGATCCTTGACCCGATGTGAGGATTTA | binds
